The target in assay [1] is T1, Human ASGR-2 (human, UniProt P07307 1-311).
T1 construct: Expressed on HEK 293 cells; cDNA GenBank NM_080913.3; also called huASGR-2; hASGR-2
T1 sequence: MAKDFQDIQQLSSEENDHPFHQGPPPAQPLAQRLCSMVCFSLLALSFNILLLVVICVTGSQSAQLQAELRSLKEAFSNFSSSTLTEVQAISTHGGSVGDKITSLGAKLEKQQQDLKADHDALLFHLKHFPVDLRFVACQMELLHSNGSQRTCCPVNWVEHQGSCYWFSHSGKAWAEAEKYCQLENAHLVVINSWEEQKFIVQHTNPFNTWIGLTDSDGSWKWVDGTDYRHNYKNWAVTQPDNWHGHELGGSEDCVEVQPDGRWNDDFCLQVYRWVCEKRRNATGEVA
Description: FACS on transfected HEK 293 cells; binding = signal at least 2x irrelevant IgG. As for the experimental part: Human ASGR-1-specific, ligand competing antibody samples were tested for binding to ASGR-1 from other species (cynomologus monkey ASGR-1, mouse ASGR-1, rat ASGR-1, dog ASGR-1, and pig ASGR-1) as well as to human ASGR-2 in FACS binding assays at normalized antibody concentrations. For cell-based assays, HEK 293 cells expressing the appropriate antigen of interest were mixed with antibody sample or controls, incubated for 1 hour at 4° C., and then washed twice. Cells with bound antibody were then incubated with Alexa Fluor® 647 IgG Fc fragment-specific detection antibody and 7-AAD viability stain for 15 minutes at 4° C., washed once and resuspended in FACS buffer. Samples were analyzed using a BD Accuri™ Flow Cytometer and an Intellicyt HyperCyt Autosampler. As a negative control, supernatants and controls were also screened against HEK 293 cells transfected with empty parental vector. […] For membrane-prep binding assays, ASGR-1 species specific membrane preps were used to coat LumAvidin® microspheres (beads) and tested for binding to selected hybridoma supernatants or controls. Briefly, ASGR-1 species specific membrane preps were incubated with streptavidin-coated LumAvidin® beads for 45 minutes in the dark at room temperature and washed twice. Beads were resuspeneded in FACS buffer containing Stabilguard®. Antigen-bound beads were then incubated with normalized antibody sample for 1 hour in the dark at room temperature, washed twice, incubated with Alexa Fluor® 488 IgG Fc fragment-specific detection antibody for 15 minutes in the dark at room temperature, washed once and finally resuspended in FACS buffer. Samples were analyzed using an Intellicyt iQue™ Screener Platform. FACS buffer supplemented with 1 mM Calcium Chloride was used in all steps. As a negative control, supernatants and controls were also screened against a non-ASGR-1 antigen membrane prep coated on the LumAvidin® beads.

Assay [2] has as its target T2, Cyno ASGR-1 (cynomolgus monkey, UniProt P07306 1-291 (human entry)).
T2 construct: Expressed on HEK 293 cells or as membrane prep on beads; cDNA from XP_005582755; also called cynomologus monkey ASGR-1
T2 chain: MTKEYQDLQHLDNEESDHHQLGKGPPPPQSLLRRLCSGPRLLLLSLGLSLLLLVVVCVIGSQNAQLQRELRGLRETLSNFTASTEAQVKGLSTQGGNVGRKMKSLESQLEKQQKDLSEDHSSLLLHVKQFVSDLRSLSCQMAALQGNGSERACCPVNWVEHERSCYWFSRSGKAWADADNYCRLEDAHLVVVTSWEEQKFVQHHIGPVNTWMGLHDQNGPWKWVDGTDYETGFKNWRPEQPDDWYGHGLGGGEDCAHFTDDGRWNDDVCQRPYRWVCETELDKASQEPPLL
As to the kind of experiment: FACS on transfected HEK 293 cells or membrane preps on beads; Y = signal at least 2x irrelevant IgG. The essentials: (§1)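 Antibodies at normalized concentrations bound 1 h at 4° C to HEK 293 cells expressing each antigen, then Alexa Fluor 647 anti-Fc plus 7-AAD 15 min at 4° C, flow cytometry; empty-vector cells as negative. Alternatively, species ASGR-1 membrane preps on streptavidin beads, antibody 1 h RT, Alexa Fluor 488 anti-Fc; FACS buffer with 1 mM CaCl2 throughout.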

Assay [3] has as its target T3, Pig ASGR-1 (pig).
T3 construct: Expressed on HEK 293 cells or as membrane prep on beads; cDNA GenBank NM_001244458
T3 chain: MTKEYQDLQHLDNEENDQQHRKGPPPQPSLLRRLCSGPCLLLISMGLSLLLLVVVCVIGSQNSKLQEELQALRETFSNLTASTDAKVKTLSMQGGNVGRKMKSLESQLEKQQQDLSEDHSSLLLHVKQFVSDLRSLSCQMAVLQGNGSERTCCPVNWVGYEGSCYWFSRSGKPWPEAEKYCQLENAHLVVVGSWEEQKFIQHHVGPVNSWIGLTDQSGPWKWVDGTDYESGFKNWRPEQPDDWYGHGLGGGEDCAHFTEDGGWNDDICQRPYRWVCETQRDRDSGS
The assay is described as above. In a few lines:
as §1

Assay [4] addresses T4, Mouse ASGR-1 (mouse, UniProt P34927 1-284).
T4 construct: Expressed on HEK 293 cells or as membrane prep on beads; cDNA GenBank BC022106.1; also called muASGR-1; mASGR-1
T4 sequence: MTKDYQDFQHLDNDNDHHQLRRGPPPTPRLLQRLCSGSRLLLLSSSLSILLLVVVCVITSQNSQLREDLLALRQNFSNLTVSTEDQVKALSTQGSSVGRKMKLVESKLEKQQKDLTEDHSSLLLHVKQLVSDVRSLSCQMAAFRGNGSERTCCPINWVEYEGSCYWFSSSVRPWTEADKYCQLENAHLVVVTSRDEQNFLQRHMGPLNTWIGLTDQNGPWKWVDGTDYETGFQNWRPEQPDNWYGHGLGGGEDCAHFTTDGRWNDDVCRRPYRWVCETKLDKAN
As to the kind of experiment: FACS on transfected HEK 293 cells or membrane preps on beads; binding = signal at least 2x irrelevant IgG. The essentials:
as §1

Assay [5] deals with T5, Rat ASGR-1 (rat, UniProt P02706 1-284).
T5 construct: Expressed on HEK 293 cells or as membrane prep on beads; cDNA GenBank NM_012503
T5 sequence: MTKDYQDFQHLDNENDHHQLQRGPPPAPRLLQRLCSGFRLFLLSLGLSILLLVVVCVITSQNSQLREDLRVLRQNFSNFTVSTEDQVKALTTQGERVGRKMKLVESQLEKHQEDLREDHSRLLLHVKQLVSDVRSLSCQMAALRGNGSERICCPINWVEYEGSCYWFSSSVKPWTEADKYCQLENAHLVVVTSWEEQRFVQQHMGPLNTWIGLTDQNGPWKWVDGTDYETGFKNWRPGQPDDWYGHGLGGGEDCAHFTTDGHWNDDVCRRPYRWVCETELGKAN
Described as above. In a few lines: as §1

B1: 7E11 (antibody, V domains shown)
VH: QVQLVESGGGVVQPGRSLRLSCAASGFTFSSFGMHWVRQAPGKGLEWVAIIWHDGSNKYYADSVKGRFTISRDNSNNTLYLQMSSLRAEDTAVYYCARDLSMGGMDVWGQGTTVTVSS
VL: DIQMTQSPSSLSASVGDRVTIACRASQNIISYLNWYQQKPGKAPKFLIYTASSLQSGVPSRFSGSGSGTDFTLTISSLQPEDFAIYYCQQTYSTPLTFGGGTKVEIK
notes: Tested as hybridoma supernatant at normalized concentration
For the molecule B1, the binding result in assay [1] is listed as “no binding”; in assay [2], “binds”; in assay [3], “binds”; in assay [4], “no binding”; in assay [5], “no binding”.

B2: 7G4 (antibody, V domains shown)
VH: QVQLVESGGGVVQPGRSLRLSCAASGFTFNNYVMHWVRQAPGKGLEWVAVIWYDGSNKYYADSVKGRFTISRDNSKNTLYLQMTSLRAEDTAVYYCAREKYSSNWYDYGMDVWGQGTTVTVSS
VL: DIQMTQSPSSLSASVGDRVTITCRASQGIRNDLGWYQQRPGKAPKRLIYAASSLQSGVPSRFSGSGSGTEFTLTISSLQPEDSATYYCLHQYSYPRTFGQGTKVEIK
notes: as for B1
As for B2, the binding result in assay [1] is on record as “no binding”; in assay [2] it was “binds”; in assay [3], “binds”; in assay [4], “no binding”; in assay [5], “no binding”.

B3: 202A3 (antibody, V domains shown)
VH: QVQLEQSGAEVKKPGASVKVSCKASGYTFTSYDINWVRQATGQGLEWLGWMNPKRGNTGYAQKFQGRVTMTRNTSISTAHMELSSLRSEDTAVYYCARGRYSREDYYYYYDMDVWGQGTTVTVSS
VL: DIQMSQSPSSLSASVGDRVTITCRASQGIRNDLGWYQQKPGKAPKRLICAASRLQSGVPSRFSGSGSGTEFTLTISSLQPEDFAIYYCLQHHDYPFTFGPGTKVDIK
notes: as for B1
Consider B3, for which the binding result in assay [1] is “no binding”; in assay [2], “binds”; in assay [3], “binds”; in assay [4] it was “no binding”; in assay [5] it was “no binding”.

B4: 48B12 (antibody, V domains shown)
VH: EVQLLESGGGLVQPGGSLRLSCAASGFTFSSYAMNWVRQAPGKGLEWVSAISGRGGNTFYADSVKGRFTISRDNSKNTLYLQMNSLRAEDTAVYYCAKRETYNWNYEGFDYWGQGTLVTVSS
VL: SYELTQPPSVSVSPGQTARITCSGDALPKKYAYWYQQKSGQAPVLVIYEDSKRPSGIPERFSGSSSGTMATLTISGAQVEDEADYYCNSTDSSGNHVVFGGGTKLTVL
notes: as for B1
With B4, the binding result in assay [1] is given as “no binding”; in assay [2] it was “binds”; in assay [3], “binds”; in assay [4] it was “no binding”; in assay [5], “no binding”.

B5: 75G3 (antibody, V domains shown)
VH: QVQLQQWGAGLLKPSETLSLTCAVYGGSLSGSYWSWIRQPPGKGLEWIGEINLSGSTNYNPSLKSRVTISVDTSKSQFSLTLRSVTAADTAVYYCARDYGGLDYWGQGTLVTVSS
VL: EIVLTQSPGTLSLSPGERATLSCRARQNVDSSYLAWYQQKPGQAPRLLIYGASSRATGIPDRFSGSGSGTDFTLTISRLEPEDFAVFYCQQYERSPWTFGQGTKVEIK
notes: as for B1
Turning to B5, the binding result is “no binding” in assay [1]; “binds” in assay [2]; “binds” in assay [3]; “no binding” in assay [4]; “no binding” in assay [5].

B6: 176H4 (antibody, V domains shown)
VH: QVQLVESGGGVVQPGRSLRLSCAASGFTFSSYGMHWVRQAPGKGLEWVAIIWYDGSYKYYADSVKGRFTISRDNSKNTLYLQMSSLRAEDTAVYYCARDAHDFWSGYFAYWGQGALVTVSS
VL: DIVMTQTPLSLSVTPGQPASISCKSSQSLLHGDGKTYLYWYLQKPGQPPQLLIYEVSNRFSGVPDRFSGSGSGTDFTLKISRVEAEDVGIYYCMQSIQIPWTFGQGTRVEIK
notes: as for B1
B6: the binding result in assay [1] is “no binding”; in assay [2] it was “binds”; in assay [3] it was “binds”; in assay [4], “no binding”; in assay [5] it was “no binding”.

B7: 218G4 (antibody, V domains shown)
VH: QVQLVESGGGVVQPGRSLRLSCAASGFTFSSYGLHWVRQAPGKGLEWVAVIWYDGSNKYYADSVKGRFTISRDNSKNTLYLQMNSLRVEDTAVYYCANWYYYYYGMDVWGQGTTVTVSS
VL: QSVLTQPPSVSAAPGQKVTISCSGSSSNIGNNYVSWYQQLPGTAPKLLLYDSNKRPSGIPARFSGSKSGTSATLGITGLQTGDEADYYCGTWDSSLNTVVFGGGTKLTVL
notes: as for B1
For B7, the binding result in assay [1] is “no binding”; in assay [2], “binds”; in assay [3], “binds”; in assay [4], “no binding”; in assay [5], “no binding”.

B8: 194C10 (antibody, V domains shown)
VH: QVQLQQWGAGLLKPSETLSLTCAVSGGSFRYYYWSWIRQPPGKGLEWFGEINHSGSTNYNPSLKSRVTISIDTSKNQFSLKLRSVTAADTAVYYCARDYGAFDIWGQGTMVTVSS
VL: EIVLTQSPGTLSLSPGERATLSCRASPSVNSGYLAWYQQKPGQTPRLLIFGASSRATGIPDRFSASGSGADFTLTISRLEPEDFAVYFCQQYESSPWTFGQGTKVEIK
notes: as for B1
Take B8: the binding result was “no binding” in assay [1]; “binds” in assay [2]; “binds” in assay [3]; “no binding” in assay [4]; “no binding” in assay [5].

Values taken from patent US20190248902A1 (published 2019).
